Molecular target: unidentified GPNMB ligand(s) on the surface of SVEC4-10 cells
Experiment: flow cytometry, soluble moGPNMB-Fc on SVEC4-10 cells, PE anti-IgG Fc secondary; thin-line histogram shifted right with a tail to about 10^4, thick-line control histogram near 0

PE-A subset (share of cells in the drawn gate, unit not given): 70.1
B1: soluble mouse GPNMB-Fc polypeptide (Fc of human IgG1 or mouse IgG2A, not specified for the assay) (Fc fusion, UniProt Q99P91 23-502, looked up, not shown: a dimerising Fc or GST)
chain: KRFRDVLGHEQYPDHMREHNQLRGWSSDENEWDEHLYPVWRRGDGRWKDSWEGGRVQAVLTSDSPALVGSNITFVVNLVFPRCQKEDANGNIVYEKNCRNDLGLTSDLHVYNWTAGADDGDWEDGTSRSQHLRFPDRRPFPRPHGWKKWSFVYVFHTLGQYFQKLGRCSARVSINTVNLTAGPQVMEVTVFRRYGRAYIPISKVKDVYVITDQIPVFVTMSQKNDRNLSDEIFLRDLPIVFDVLIHDPSHFLNDSAISYKWNFGDNTGLFVSNNHTLNHTYVLNGTFNLNLTVQTAVPGPCPPPSPSTPPPPSTPPSPPPSPLPTLSTPSPSLMPTGYKSMELSDISNENCRINRYGYFRATITIVEGILEVSIMQIADVPMPTPQPANSLMDFTVTCKGATPMEACTIISDPTCQIAQNRVCSPVAVDGLCLLSVRRAFNGSGTYCVNFTLGDDASLALTSTLISIPGKDPDSPLRAVN
